Series [1] concerns the target nucleocapsid protein (N) 175-245 (UniProt P0DTC9). The settings on record: sites S188.
The target is the same in series [2]. The settings on record: sites S188. The source holds these as a separate data set.
Series [3] has as its target nucleocapsid protein (N) 175-365 (UniProt P0DTC9). The following applies: sites S188.
The series “AUC” deals with the molecule itself. The series is described as follows: AUC.

From paper PMC11180338 (The Journal of Biological Chemistry, 2024) come the findings set out here.

The Kd is the free concentration of one partner at which half of the binding sites on the other are occupied at equilibrium, for simple one-to-one binding. Lower therefore signals a tighter complex. As usually defined, the stoichiometry N is the number of molecules, sites or subunits per partner or assembly.

Like-named read-outs stand apart in the source and are kept apart here.

On to “nucleocapsid protein (N) 175-245 (from UniProt P0DTC9)”, for which the “binding against the reference” value in series [1] and in series [2] was “weaker” throughout.
With “nucleocapsid protein (N) 175-365 (from UniProt P0DTC9)”, the “binding against the reference” value in series [3] is “same”.

B1: WT-N_(175–245) GFP, GFP-tagged N_(175–245) (domain or fragment)
chain: GSRGGSQASSRSSSRSRNSSRNSTPGSSRGTSPARMAGNGGDAALALLLLDRLNQLESKMSGKGQQQQGQT
For B1, in “AUC”, the affinity, expressed as Kd, was 77 µM and the “stoichiometry N” value is 2.

B2: pSer188-N_(175–245) GFP (domain or fragment)
chain: B1 chain
modifications: phosphoserine at 188
In turn, B2 had a Kd in the series “AUC” of 235 µM.
